# Where a chain is given by its changes, count along the chain named. Where no end group is shown, it is not given here. The star is where a group is joined. Biotin = O=C1N[C@H]2[C@H](CS[C@H]2CCCCC(=O)*)N1
# T1: Peptide K (human PAR-1), unbiotinylated (Human)
# T1 peptide: ATNATLDPRSFLLRNPND
# T2: Peptide M (human PAR-4), unbiotinylated (Human)
# T2 peptide: ESGSTGGGDDSTPSILPAP
# T3: Peptide L (human PAR-3), unbiotinylated (Human)
# T3 peptide: DTNNLAKPTLPIKTFRGA
# T4: Peptide A (human PAR-2), unbiotinylated (Human)
# T4 construct: also called Peptide A No Biotin
# T4 peptide: GTNRSSKGRSLIGKVDGT
# T5: Peptide C (human PAR-2), N-terminal biotinylated (Human)
# T5 construct: also called Peptide C N-Term
# T5 peptide: Biotin-GGGGSSLIGKV
# T6: Peptide E (mouse PAR-2), unbiotinylated (Mouse (Mus musculus))
# T6 construct: also called Peptide E No Biotin
# T6 peptide: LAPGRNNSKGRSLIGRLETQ
# T7: Peptide H (rabbit PAR-2) (Rabbit (Oryctolagus cuniculus))
# T7 peptide: GTNKTSKGRSLIGRNTGS
# T8: Peptide G (rat PAR-2), unbiotinylated (Rat (Rattus norvegicus))
# T8 construct: also called Peptide G No Biotin
# T8 peptide: GPNSKGRSLIGRLDTP
# T9: Peptide I (dog PAR-2) (Dog (Canis familiaris))
# T9 peptide: GTNRTSKGRSLIGKTDSS
# T10: Peptide G (rat PAR-2), N-terminal biotinylated (Rat (Rattus norvegicus), N-terminal biotin via G4S linker)
# T10 construct: also called Peptide G N-Term
# T10 peptide: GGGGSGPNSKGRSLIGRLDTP
# T11: Peptide E (mouse PAR-2), N-terminal biotinylated (Mouse (Mus musculus), N-terminal biotin via G4S linker)
# T11 construct: also called Peptide E N-Term
# T11 peptide: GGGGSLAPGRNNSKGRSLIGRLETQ
# T12: Peptide G (rat PAR-2), C-terminal biotinylated (Rat (Rattus norvegicus), C-terminal biotin via G4S linker)
# T12 construct: also called Peptide G C-Term
# T12 peptide: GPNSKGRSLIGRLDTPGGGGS
# B1: H4H583P (antibody, human IgG4, V domains shown)
# VH: QVQLVESGGGVVQPGMSLRLSCTASGFTFRRYGMHWVRQAPGKGLEWVAVIWYDGSNKYYADSVKGRFTITRDNSKNTLYLQMNSLRAEDTAIYFCASEITIGDWFDPRGQGTLVTVSS
# VL: AIQMTQSPSSLSASVGDRVTITCRASQGIRNDLGWFQQKPGKVPKLLIYAASTLHSGVPSRFSGSGFGTDFTLTISSLQPEDFATYYCLQDFNYPLTFGGGTKVEIK
# notes: also called H1H583P variable regions
# B2: H4H588N (antibody, human IgG4, V domains shown)
# VH: EVQLLESGGGLVQPGGSLRLSCAASGFTFSSYAMTWVRQAPGKGLYWVSAISGGRGSAYYADSVKGRFTISRDNSKNTLYLQMNSLRAEDTAVYYCAKEGDSGYDLAYWGRGTLVTVSS
# VL: DIQMTQSPSSLSASVGDRVTITCRARQGISNNLAWLQQKPGKAPKSLIYAASSLQSGIPSKFSGSGSGTYFTLTISSLQPEDFATYYCQQYKSSPLTFGGGTKVEIK
# notes: also called H2M588N variable regions
# B3: H4H584P (antibody, human IgG4, V domains shown)
# VH: QVQLVESGGGVVQPGRSLRLSCVASGFTFSRYGMHWVRQAPGKGLEWVVVISYDGINKYYADSVKGRFTISRDNSKNTVYLQMNSLRAEDTAVYYCAKGDFWSGYFDYWGQGTLVTVSS
# VL: DIVMTQTPLSSPVTLGQPASISCRSSQSLVHSDGNTYLSWLHQRPGQPPRLLIYKISNRFSGVPDRFSGSGAGTDFTLQISRVEAEDVGIYYCMQATQFPTFGGGTKVEIK
# notes: also called H1H584P variable regions
# B4: H4H579P (antibody, human IgG4, V domains shown)
# VH: B3 VH with V48L, V49I, A92G
# VL: B3 VL with A96G
# notes: also called H1H579P variable regions
# B5: H4H585P (antibody, human IgG4, V domains shown)
# VH: B3 VH with V48L, V49I
# VL: B3 VL with A96G
# notes: also called H1H585P variable regions
# B6: H4H581P (antibody, human IgG4, V domains shown)
# VH: B3 VH with M34I, V49I
# VL: B3 VL
# notes: also called mAb H4H581P; H1H581P variable regions
# Target: T1, Peptide K (human PAR-1), unbiotinylated
# Experiment: SPR, antibody captured
row,Binder,binding result
1,B1,no binding
2,B2,no binding
3,B3,no binding
4,B4,no binding

# Target: T2, Peptide M (human PAR-4), unbiotinylated
# Experiment: SPR, antibody captured
row,Binder,binding result
1,B1,no binding
2,B2,no binding
3,B3,no binding
4,B4,no binding

# Target: T3, Peptide L (human PAR-3), unbiotinylated
# Experiment: SPR, antibody captured
row,Binder,binding result
1,B1,no binding
2,B2,no binding
3,B3,no binding
4,B4,no binding

# Target: T4, Peptide A (human PAR-2), unbiotinylated
# Experiment: SPR, antibody captured
Binder,Kd,T1/2
B1,37.1 nM,22.2 s
B3,22 nM,43.8 s
B4,15 nM,240 s
B5,8.78 nM,222 s
B6,9.44 nM,84 s

# Target: T5, Peptide C (human PAR-2), N-terminal …
# Experiment: SPR, peptide immobilized
Binder,binding result,Kd
B1,no binding,
B2,no binding,
B3,no binding,
B4,no binding,
B6,,> 100 nM

# Target: T6, Peptide E (mouse PAR-2), unbiotinylated
# Experiment: peptide ELISA titration; ELISA titration, bivalent IgG on peptide-coated plate
# Protocol: (§1) Anti-PAR-2 antibodies were tested for their ability to bind to the PAR-2 peptides. Various PAR-2 Peptides (Table 3) were coated onto 96-well plates at a concentration of 2 μg/ml and incubated overnight followed by blocking in a suitable blocking agent for one hour. […] Purified anti-PAR-2 antibodies were added to the plate coated with PAR-2 peptides to a final concentration ranging from 0.2 to 2.0 μg/ml and incubated for one hour at room temperature. Detection of bound antibodies was determined with Horse-Radish Peroxidase (HRP) conjugated anti-mouse or human IgG (Jackson Immuno Research Lab, West Grove, Pa.) and developed by standard colorimetric response using tetramethylbenzidine (TMB) substrate. Absorbance was read at OD₄₅₀ for 0.1 second.
# (§2) In another experiment, selected anti-PAR-2 antibodies cloned onto human IgG4 were tested for binding to unbiotinylated and biotinylated forms of PAR-2 peptides (Peptides A, E, F and G; as described above). […] Absorbance values at 450 nm were analyzed using a sigmoidal dose-response model in GraphPad Prism (GraphPad Software, Inc., La Jolla, Calif.) and EC₅₀ values were reported (Table 9). EC₅₀ values are defined as the antibody concentration required to achieve 50% maximal binding to PAR-2 peptide.
row,Binder,EC50
1,B1,0.019 nM
2,B3,2.15 nM
3,B6,0.029 nM

# Target: T7, Peptide H (rabbit PAR-2)
# Experiment: SPR, antibody captured
# Protocol: (§3) Equilibrium dissociation constants (KD values) for antigen binding to selected purified PAR-2 antibodies were determined by surface kinetics using a real-time surface plasmon resonance biosensor assay. Antibody was captured on either a rabbit anti-mouse IgG polyclonal antibody (GE Healthcare, Piscataway, N.J.) surface or a goat anti-human IgG polyclonal antibody (Jackson Immuno Research Lab, West Grove, Pa.) surface created through direct amine chemical coupling to a BIACORE™ CM5 sensor chip to form a captured antibody surface. […] Antigen-antibody binding and dissociation were monitored in real time at room temperature. Kinetic analysis was performed to calculate KD and half-life of antigen/antibody complex dissociation (Table 10). For those antibodies where no T_{1/2} value is shown, steady state analysis was used to calculate the KD value. NB: no binding observed under current experimental conditions. ND: not determined.
Binder,Kd,T1/2,binding result
B1,189 nM,10.2 s,
B2,,,no binding
B3,,,no binding
B6,,,no binding

# Target: T8, Peptide G (rat PAR-2), unbiotinylated
# Experiment: SPR, antibody captured
# Protocol: as §3
Binder,Kd,T1/2
B1,530 nM,4.2 s
B3,246 nM,7.8 s
B4,134 nM,27 s
B5,162 nM,19.8 s
B6,40.2 nM,37.8 s

# Target: T9, Peptide I (dog PAR-2)
# Experiment: SPR, antibody captured
# Protocol: as §3
Binder,Kd,T1/2,binding result
B1,320 nM,9.6 s,
B2,,,no binding
B4,311 nM,15.6 s,
B5,372 nM,11.4 s,
B6,143 nM,4.2 s,

# Target: T10, Peptide G (rat PAR-2), N-terminal …
# Experiment: SPR, peptide immobilized
Binder,Kd,T1/2
B1,1.49 nM,13 min
B3,1.39 nM,15 min
B4,1.16 nM,38 min
B5,1.36 nM,35 min
B6,0.354 nM,62 min

# Target: T11, Peptide E (mouse PAR-2), N-terminal …
# Experiment: SPR, peptide immobilized
Binder,Kd,T1/2
B1,1.68 nM,660 s
B3,> 100 nM,
B4,3.4 nM,1200 s
B5,> 100 nM,
B6,1.13 nM,1260 s

# Target: T8, Peptide G (rat PAR-2), unbiotinylated
# Experiment: peptide ELISA titration
# Protocol: as §1, §2
row,Binder,EC50
1,B1,0.012 nM
2,B3,0.013 nM
3,B4,0.055 nM
4,B5,0.018 nM
5,B6,0.02 nM

# Target: T10, Peptide G (rat PAR-2), N-terminal …
# Experiment: peptide ELISA titration
# Protocol: as §1, §2
row,Binder,EC50
1,B1,0.015 nM
2,B3,0.012 nM
3,B4,0.059 nM
4,B5,0.017 nM
5,B6,0.019 nM

# Target: T11, Peptide E (mouse PAR-2), N-terminal …
# Experiment: peptide ELISA titration
# Protocol: as §1, §2
row,Binder,EC50
1,B1,0.014 nM
2,B3,0.511 nM
3,B4,0.54 nM
4,B5,0.189 nM
5,B6,0.032 nM

# Target: T12, Peptide G (rat PAR-2), C-terminal …
# Experiment: peptide ELISA titration
# Protocol: as §1, §2
row,Binder,EC50
1,B1,0.63 nM
2,B3,0.015 nM
3,B4,0.044 nM
4,B5,0.021 nM
5,B6,0.013 nM

# Reference: patent US20110059095A1 (Regeneron, published 2011)
